To fix the notation:
B1: Ribonuclease, P00648 (parent)
chain: MMKMEGIALKKRLSWISVCLLVLVSAAGMLFSTAAKTETSSHKAHTEAQVINTFDGVADYLQTYHKLPDNYITKSEAQALGWVASKGNLADVAPGKSIGGDIFSNREGKLPGKSGRTWREADINYTSGFRNSDRILYSSDWLIYKTTDHYQTFTKIR
B2: Collagen alpha-1(XVIII) chain, P39060 (parent)
chain: MAPYPCGCHILLLLFCCLAAARANLLNLNWLWFNNEDTSHAATTIPEPQGPLPVQPTADTTTHVTPRNGSTEPATAPGSPEPPSELLEDGQDTPTSAESPDAPEENIAGVGAEILNVAKGIRSFVQLWNDTVPTESLARAETLVLETPVGPLALAGPSSTPQENGTTLWPSRGIPSSPGAHTTEAGTLPAPTPSPPSLGRPWAPLTGPSVPPPSSGRASLSSLLGGAPPWGSLQDPDSQGLSPAAAAPSQQLQRPDVRLRTPLLHPLVMGSLGKHAAPSAFSSGLPGALSQVAVTTLTRDSGAWVSHVANSVGPGLANNSALLGADPEAPAGRCLPLPPSLPVCGHLGISRFWLPNHLHHESGEQVRAGARAWGGLLQTHCHPFLAWFFCLLLVPPCGSVPPPAPPPCCQFCEALQDACWSRLGGGRLPVACASLPTQEDGYCVLIGPAAERISEEVGLLQLLGDPPPQQVTQTDDPDVGLAYVFGPDANSGQVARYHFPSLFFRDFSLLFHIRPATEGPGVLFAITDSAQAMVLLGVKLSGVQDGHQDISLLYTEPGAGQTHTAASFRLPAFVGQWTHLALSVAGGFVALYVDCEEFQRMPLARSSRGLELEPGAGLFVAQAGGADPDKFQGVIAELKVRRDPQVSPMHCLDEEGDDSDGASGDSGSGLGDARELLREETGAALKPRLPAPPPVTTPPLAGGSSTEDSRSEEVEEQTTVASLGAQTLPGSDSVSTWDGSVRTPGGRVKEGGLKGQKGEPGVPGPPGRAGPPGSPCLPGPPGLPCPVSPLGPAGPALQTVPGPQGPPGPPGRDGTPGRDGEPGDPGEDGKPGDTGPQGFPGTPGDVGPKGDKGDPGVGERGPPGPQGPPGPPGPSFRHDKLTFIDMEGSGFGGDLEALRGPRGFPGPPGPPGVPGLPGEPGRFGVNSSDVPGPAGLPGVPGREGPPGFPGLPGPPGPPGREGPPGRTGQKGSLGEAGAPGHKGSKGAPGPAGARGESGLAGAPGPAGPPGPPGPPGPPGPGLPAGFDDMEGSGGPFWSTARSADGPQGPPGLPGLKGDPGVPGLPGAKGEVGADGVPGFPGLPGREGIAGPQGPKGDRGSRGEKGDPGKDGVGQPGLPGPPGPPGPVVYVSEQDGSVLSVPGPEGRPGFAGFPGPAGPKGNLGSKGERGSPGPKGEKGEPGSIFSPDGGALGPAQKGAKGEPGFRGPPGPYGRPGYKGEIGFPGRPGRPGMNGLKGEKGEPGDASLGFGMRGMPGPPGPPGPPGPPGTPVYDSNVFAESSRPGPPGLPGNQGPPGPKGAKGEVGPPGPPGQFPFDFLQLEAEMKGEKGDRGDAGQKGERGEPGGGGFFGSSLPGPPGPPGPPGPRGYPGIPGPKGESIRGQPGPPGPQGPPGIGYEGRQGPPGPPGPPGPPSFPGPHRQTISVPGPPGPPGPPGPPGTMGASSGVRLWATRQAMLGQVHEVPEGWLIFVAEQEELYVRVQNGFRKVQLEARTPLPRGTDNEVAALQPPVVQLHDSNPYPRREHPHPTARPWRADDILASPPRLPEPQPYPGAPHHSSYVHLRPARPTSPPAHSHRDFQPVLHLVALNSPLSGGMRGIRGADFQCFQQARAVGLAGTFRAFLSSRLQDLYSIVRRADRAAVPIVNLKDELLFPSWEALFSGSEGPLKPGARIFSFDGKDVLRHPTWPQKSVWHGSDPNGRRLTESYCETWRTEAPSATGQASSLLGGRLLGQSAASCHHAYIVLCIENSFMTASK
B3: NADP-dependent isopropanol dehydrogenase, P25984 (parent)
chain: MKGFAMLGINKLGWIEKERPVAGSYDAIVRPLAVSPCTSDIHTVFEGALGDRKNMILGHEAVGEVVEVGSEVKDFKPGDRVIVPCTTPDWRSLEVQAGFQQHSNGMLAGWKFSNFKDGVFGEYFHVNDADMNLAILPKDMPLENAVMITDMMTTGFHGAELADIQMGSSVVVIGIGAVGLMGIAGAKLRGAGRIIGVGSRPICVEAAKFYGATDILNYKNGHIVDQVMKLTNGKGVDRVIMAGGGSETLSQAVSMVKPGGIISNINYHGSGDALLIPRVEWGCGMAHKTIKGGLCPGGRLRAEMLRDMVVYNRVDLSKLVTHVYHGFDHIEEALLLMKDKPKDLIKAVVIL
B4: Phosphoglycerate kinase 1, P00558 (parent)
chain: MSLSNKLTLDKLDVKGKRVVMRVDFNVPMKNNQITNNQRIKAAVPSIKFCLDNGAKSVVLMSHLGRPDGVPMPDKYSLEPVAVELKSLLGKDVLFLKDCVGPEVEKACANPAAGSVILLENLRFHVEEEGKGKDASGNKVKAEPAKIEAFRASLSKLGDVYVNDAFGTAHRAHSSMVGVNLPQKAGGFLMKKELNYFAKALESPERPFLAILGGAKVADKIQLINNMLDKVNEMIIGGGMAFTFLKVLNNMEIGTSLFDEEGAKIVKDLMSKAEKNGVKITLPVDFVTADKFDENAKTGQATVASGIPAGWMGLDCGPESSKKYAEAVTRAKQIVWNGPVGVFEWEAFARGTKALMDEVVKATSRGCITIIGGGDTATCCAKWNTEDKVSHVSTGGGASLELLEGKVLPGVDALSNI

Values joined by “and” are separate entries in the source; they are usually repeats but may differ in a detail not shown here. Equal entries are not always repeated.

Variants of B1 are the subject of one data set. Conditions: Bacillus amyloliquefaciens; pH 6.3; 25 °C; Thermal; Fluorescence; MES 50 mM; structure 1BNI; whole UniProt chain shown.
With D101N, the “ddG of mutation (higher = less stable)” value worked out at 2.6 kcal/mol and the unfolding free energy came out at 7.6 kcal/mol.

With D122N, the “ddG of mutation (higher = less stable)” value came to 5 kcal/mol and the unfolding free energy came out at 5.2 kcal/mol.

The same data set, now with this note: Bacillus amyloliquefaciens; pH 6.3; 25 °C; Urea; Fluorescence; MES 50 mM; reversible: yes; structure 1BNI; whole UniProt chain shown.
In the case of T73A, the “ddG of mutation (higher = less stable)” value amounted to 2.14 kcal/mol. For the variant T63S, the “ddG of mutation (higher = less stable)” value was found to be 1.87 kcal/mol. On the same count and under the same terms, as for I143V, the figure is 0.98 kcal/mol; as for I143A, 3.52 kcal/mol; as for H65Q, 1.6 kcal/mol.

The data set is the same for the next values; noted with them: Bacillus amyloliquefaciens; pH 6.15; 25 °C; Urea; Fluorescence; MES 19.3 mM; reversible: yes; structure 1BNI; whole UniProt chain shown.
F54L: the “ddG of mutation (higher = less stable)” value is 4.1 kcal/mol, the “denaturant midpoint (higher = more stable)” value (from here on “denaturant midpoint”) was found to be 2.42 M and the unfolding free energy is 6.4 kcal/mol.

Still in this data set, the particulars now being: Bacillus amyloliquefaciens; pH 6.3; 25 °C; Urea; Fluorescence; MES 1.00 M; NaCl 613 mM; reversible: yes; structure 1BNI; whole UniProt chain shown.
In the case of Y64A, the “ddG of mutation (higher = less stable)” value is 2.26 kcal/mol. On the same count and under the same terms, as for Y60A Y64A, the figure is 4.64 kcal/mol.

Still in this data set, the particulars now being: Bacillus amyloliquefaciens; pH 6.3; 25 °C; Urea; Fluorescence; MES 50 mM; structure 1BNI; whole UniProt chain shown.
With E120F, the “ddG of mutation (higher = less stable)” value was 2.1 kcal/mol. For E120W, the “ddG of mutation (higher = less stable)” value turned out to be 2.2 kcal/mol. Same read-out and setting: with E120Q the figure was 2.7 kcal/mol.

Staying with this data set, now noted: Bacillus amyloliquefaciens; pH 6.3; 25 °C; Urea; Fluorescence; MES 19.3 mM; reversible: yes; structure 1BNI; whole UniProt chain shown.
With I143A, the “ddG of mutation (higher = less stable)” value was 4 kcal/mol, the “denaturant midpoint” value is 2.24 M and the unfolding free energy stood at 6.5 kcal/mol.

The same data set, now with this note: Bacillus amyloliquefaciens; pH 6.3; 25 °C; Urea; Fluorescence; MES 1 M; structure 1BNI; whole UniProt chain shown.
Regarding H65A, the “ddG of mutation (higher = less stable)” value turned out to be 2.15 kcal/mol and the unfolding free energy came out at 6.75 kcal/mol. The matching figures for H65G: 0.89 kcal/mol and 8.01 kcal/mol.

Variants of B2 are the subject of the next data set. The conditions noted are these: Homo sapiens; pH 7.4; 20 °C; GdnHCl; Fluorescence; Tris-HCl 5 mM; structure 1BNL; whole UniProt chain shown.
D1647A: the denaturant m value was 2.86 kcal/mol/M and 1.57 kcal/mol/M; the “denaturant midpoint” value is 1.79 M; the unfolding free energy was 5.12 kcal/mol and 2.82 kcal/mol.

Another data set covers variants of B3. The conditions noted are these: Clostridium beijerinckii; pH 6.8; Thermal; CD; Na/K phosphate 50 mM; structure 1KEV; whole UniProt chain shown.
Broadly, the Tm is the temperature at the midpoint of the melting transition. For Q165E M304R, the Tm amounted to 70.4 °C and the “change of melting temperature, mutant - wild type (higher = more stable)” value came to 5.3 °C. On the same counts, the results for V224E S254K Q165E M304R are 73.7 °C and 8.6 °C. The matching figures for V224E S254K Q165E M304R R238A: 73.6 °C and 8.5 °C. On the same counts, the results for V224E S254K are 70.5 °C and 5.4 °C.

Variants of B4 are the subject of another data set. Conditions: Homo sapiens; pH 7.4; 25 °C; Urea; CD; HEPES 20mM; NaCl 200 mM; transition: 2; reversible: Yes; structure 2WZB; whole UniProt chain shown.
As to T378P, the “ddG of mutation (higher = less stable)” value is 4.8 kcal/mol, the denaturant m value came to 1.5 kcal/mol/M, the “denaturant midpoint” value came out at 2.28 M and the unfolding free energy turned out to be 3.5 kcal/mol.

E252A: the “ddG of mutation (higher = less stable)” value was determined as 0.7 kcal/mol, the denaturant m value was found to be 3.2 kcal/mol/M, the “denaturant midpoint” value stood at 2.37 M and the unfolding free energy stood at 7.6 kcal/mol.
